The source of these data is patent US20150307621A1 (Kyowa Kirin, published 2015).

The target of assay [1] is T1, human LAT1-EGFP on L929 cells (human, UniProt Q01650 1-507).
T1 construct: L929 cells transfected with pEF1/hLAT1-EGFP alone; also called hLAT1-E; hLAT1-EGFP; not shown: EGFP and the short vector-encoded linker (pEGFP-N1) at the C terminus of hLAT1
As to the kind of experiment: FACS on hLAT1-E-expressing L929 cells.

A further assay addresses T2, mouse CD98 (mouse, UniProt P10852 1-526, limits assumed).
T2 construct: also called mCD98
T2 sequence (looked up): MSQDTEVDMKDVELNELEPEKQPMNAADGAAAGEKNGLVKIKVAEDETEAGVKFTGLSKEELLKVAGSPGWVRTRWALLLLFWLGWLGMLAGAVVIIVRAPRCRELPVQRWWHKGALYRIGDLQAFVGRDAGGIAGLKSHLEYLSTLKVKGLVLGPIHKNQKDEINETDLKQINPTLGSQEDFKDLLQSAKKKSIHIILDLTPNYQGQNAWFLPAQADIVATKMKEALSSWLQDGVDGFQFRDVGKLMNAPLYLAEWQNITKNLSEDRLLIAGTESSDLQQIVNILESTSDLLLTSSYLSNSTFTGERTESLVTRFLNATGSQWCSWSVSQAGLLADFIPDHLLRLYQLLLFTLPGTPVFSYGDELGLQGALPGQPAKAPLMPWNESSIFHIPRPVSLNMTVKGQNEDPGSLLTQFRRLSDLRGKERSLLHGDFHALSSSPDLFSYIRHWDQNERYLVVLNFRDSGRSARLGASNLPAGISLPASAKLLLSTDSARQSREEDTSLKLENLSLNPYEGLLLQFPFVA
As to the kind of experiment: not described at this place.

Assay [2] addresses T3, human CD98/human LAT1-EGFP complex on transfected CT26 or L929 cells (human, UniProt P08195 1-529; Q01650 1-507, CD98 and LAT1 are linked by a disulfide bond on the cell membrane).
T3 construct: also called hCD98/hLAT1-E; hCD98/hLAT1; not shown: EGFP and the short vector-encoded linker (pEGFP-N1) fused to the intracellular C terminus of hLAT1
The experiment in a line: FACS, antibody 5 µg/mL, transfected CT26 or L929 cells. (In flow cytometry, cells or beads pass a laser one at a time.)

In assay [3] the target is T4, CD98 on human peripheral blood monocytes, PHA-activated T cells and activated B cells (human, UniProt P08195 2-529).
T4 sequence: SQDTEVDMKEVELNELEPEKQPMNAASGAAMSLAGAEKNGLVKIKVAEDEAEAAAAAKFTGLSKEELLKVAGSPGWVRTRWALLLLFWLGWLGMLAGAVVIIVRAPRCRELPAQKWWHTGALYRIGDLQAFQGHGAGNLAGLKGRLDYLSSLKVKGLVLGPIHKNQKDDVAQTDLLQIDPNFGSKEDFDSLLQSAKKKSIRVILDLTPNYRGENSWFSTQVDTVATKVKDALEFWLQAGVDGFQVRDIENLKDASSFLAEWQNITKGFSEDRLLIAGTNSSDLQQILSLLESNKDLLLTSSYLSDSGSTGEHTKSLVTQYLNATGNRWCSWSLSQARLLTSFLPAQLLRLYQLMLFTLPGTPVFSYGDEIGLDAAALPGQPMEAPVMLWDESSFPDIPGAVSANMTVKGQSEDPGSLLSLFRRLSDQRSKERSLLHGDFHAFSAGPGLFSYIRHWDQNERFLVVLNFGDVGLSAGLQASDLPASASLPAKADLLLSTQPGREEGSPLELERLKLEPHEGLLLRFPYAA
The experiment in a line: FACS with FITC-labeled antibody 5 µg/mL on human peripheral blood cells.

Assay [4] has as its target T5, CD98 on normal human aortic endothelial cells (HAEC) (human, UniProt P08195 2-529).
T5 sequence: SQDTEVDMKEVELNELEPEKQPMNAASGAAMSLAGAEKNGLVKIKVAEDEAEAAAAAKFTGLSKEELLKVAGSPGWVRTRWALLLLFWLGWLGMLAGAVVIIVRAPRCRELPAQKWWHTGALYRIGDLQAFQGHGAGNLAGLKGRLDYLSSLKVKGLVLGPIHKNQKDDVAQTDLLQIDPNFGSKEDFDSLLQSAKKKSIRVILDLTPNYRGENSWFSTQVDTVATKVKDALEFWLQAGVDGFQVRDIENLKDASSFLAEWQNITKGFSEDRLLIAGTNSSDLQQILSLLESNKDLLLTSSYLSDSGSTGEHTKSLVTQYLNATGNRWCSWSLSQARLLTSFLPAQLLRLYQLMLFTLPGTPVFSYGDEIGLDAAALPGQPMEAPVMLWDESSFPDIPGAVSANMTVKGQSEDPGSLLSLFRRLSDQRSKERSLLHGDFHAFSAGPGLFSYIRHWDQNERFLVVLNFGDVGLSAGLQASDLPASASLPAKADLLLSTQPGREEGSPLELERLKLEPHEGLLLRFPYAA
The experiment in a line: FACS on cultured HAEC, antibody 3.2 ng/mL to 50 µg/mL.

A further assay addresses T6, human CD98 (human, UniProt P08195 2-529).
T6 construct: also called hCD98; 4F2
T6 sequence: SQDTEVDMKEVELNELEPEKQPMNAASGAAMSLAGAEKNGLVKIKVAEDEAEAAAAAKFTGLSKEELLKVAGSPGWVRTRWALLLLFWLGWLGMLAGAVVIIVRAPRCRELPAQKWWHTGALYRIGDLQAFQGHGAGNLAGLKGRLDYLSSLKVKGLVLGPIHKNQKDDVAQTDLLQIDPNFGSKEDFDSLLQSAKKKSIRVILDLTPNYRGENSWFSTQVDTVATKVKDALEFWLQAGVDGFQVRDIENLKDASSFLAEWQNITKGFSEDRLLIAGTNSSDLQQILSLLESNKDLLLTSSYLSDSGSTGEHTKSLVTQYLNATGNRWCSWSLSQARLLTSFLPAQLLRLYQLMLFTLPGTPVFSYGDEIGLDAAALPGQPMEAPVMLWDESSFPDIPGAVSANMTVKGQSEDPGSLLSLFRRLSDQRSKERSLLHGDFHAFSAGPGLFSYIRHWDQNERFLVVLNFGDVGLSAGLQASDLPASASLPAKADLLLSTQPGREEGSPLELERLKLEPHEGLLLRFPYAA
As to the kind of experiment: FACS, antibody 5 µg/mL, hCD98-expressing L929 cells.

T1 sequence (Q01650 whole entry): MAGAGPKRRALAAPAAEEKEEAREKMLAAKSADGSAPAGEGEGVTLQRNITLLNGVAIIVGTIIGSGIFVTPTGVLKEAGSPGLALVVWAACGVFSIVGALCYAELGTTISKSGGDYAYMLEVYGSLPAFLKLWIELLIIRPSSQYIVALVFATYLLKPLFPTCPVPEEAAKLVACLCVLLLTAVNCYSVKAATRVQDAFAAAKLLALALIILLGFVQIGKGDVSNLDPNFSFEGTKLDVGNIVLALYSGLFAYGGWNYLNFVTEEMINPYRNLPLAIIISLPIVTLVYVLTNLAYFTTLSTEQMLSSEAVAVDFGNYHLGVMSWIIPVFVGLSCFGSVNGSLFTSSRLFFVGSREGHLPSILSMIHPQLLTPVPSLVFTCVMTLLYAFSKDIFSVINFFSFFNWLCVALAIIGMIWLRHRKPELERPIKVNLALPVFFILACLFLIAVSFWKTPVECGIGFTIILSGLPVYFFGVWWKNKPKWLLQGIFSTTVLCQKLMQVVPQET
T3 sequence (Q01650 whole entry, the tested form may be a part, one chain of several): as the sequence (Q01650 whole entry) above

B1: human anti-CD98 monoclonal antibody 3-69-6 (antibody, V domains shown)
VH: QVQLVQSGAEVKKPGASVKVSCKASGYTFTSYGISWMRQAPGQGLEWMGWISAYNGNTNYVQKFQDRVTMTRDTSTSTAYMELRSLRSDDTAVYYCARDRGSNWYGWFDPWGQGTLVTVSS
VL: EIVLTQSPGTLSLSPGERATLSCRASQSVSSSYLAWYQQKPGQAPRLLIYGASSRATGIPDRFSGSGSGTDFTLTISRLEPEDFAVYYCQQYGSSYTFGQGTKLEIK
notes: Recombinant human IgG1/kappa (N5KG1-Val Lark vector); Entries begin with residues translated from the cloning site (RRPT, RSLT) and the leader peptide; also called 3-69-6IgG1
Regarding B1, the binding result in assay [1] was “no binding (tested: 5 µg/mL)”; in the assay with mouse CD98, “no binding”.

B2: human anti-CD98 monoclonal antibody C2IgG1 (antibody, V domains shown)
VH: QLQLQESGPGLVKPSETLSLTCTVSGGSISSSSYYWGWIRQPPGKGLEWIGSIYYSGSTYYNPSLKSRVTISVDTSKSQFFLKLSSVTAADTAVYYCARQGTGLALFDYWGQGTLVTVSS
VL: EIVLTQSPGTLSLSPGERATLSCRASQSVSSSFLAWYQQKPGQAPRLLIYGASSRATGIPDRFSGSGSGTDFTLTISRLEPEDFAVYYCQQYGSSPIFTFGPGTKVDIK
notes: Recombinant IgG1/kappa form of the C2 hybridoma antibody (hybridoma C2 is IgM); The entries begin with residues translated from the cloning site (STT, RSLT) and the leader peptide; also called 4-35-14
Take B2: the binding result is on record as “no binding (tested: 5 µg/mL)” in assay [1] and “no binding” in the assay with mouse CD98.

B3: human anti-CD98 monoclonal antibody K3 (antibody, V domains shown)
VH: EVQLVQSGAEVKKPGESLKISCKGSGYRFTDYWIGWVRQMPGKGLEWMGIFYPGDSDARYSPSFQGQVTISADKSINTAYLQWSSLKASDTAMYYCARRRDIVGGTDYWGQGTLVTVSS
VL: EIVLTQSPATLSLSPGERATLSCRASQSVSSYLDWYQQKPGQAPRLLIYDASSRATGIPARFSGSGSGTDFTLTISSLEPEDFAVYYCQQRSNWITFGQGTRLEIK
notes: Recombinant human IgG1/kappa (variable regions put into the N5KG1-Val Lark vector); The entries begin with the leader peptide; FITC-labelled in some assays; also called 4-32-9; K3IgG1
As for B3, the binding result in assay [1] was “no binding (tested: 5 µg/mL)”; in assay [2], “binds”; with mouse CD98 it was “no binding”; in assay [3], “binds”; in assay [4], “binds”; with human CD98, “binds”.

B4: human anti-CD98 monoclonal antibody 1-40-1 (antibody, V domains shown)
VH: EVQLVESGGGVVRPGGSLRLSCAASGFTFDDYGMTWVRQAPGKGLEWVSTISWNGGGTGYADSVKGRFTISRDNAKNSLYLQMNSLRAEDTALYYCAGYCIITGCYADYWGQGTLVTVSS
VL: EIVLTQSPATLSLSPGERATLSCRASQSVSSYLAWYQQKPGQAPRLLIYDASNRATGIPARFSGSGSGTDFTLTISSLEPEDFAVYYCQQRSNWWTFGQGTKVEIK
notes: Recombinant human IgG1/kappa (N5KG1-Val Lark vector); Entries begin with the leader peptide; also called 1-40-1IgG1
In the case of B4, the binding result is recorded as “no binding (tested: 5 µg/mL)” in assay [1]; “binds” in assay [2]; “no binding” with mouse CD98; “binds” in assay [3]; “binds” in assay [4]; “binds” with human CD98.
